Test results published in patent US20260056186A1 (JIANGSU HENGRUI PHARMACEUTICALS, published 2026).
Like-named read-outs stand apart in the source and are kept apart here.

Assays:
[1] = target: T1, recombinant human APRIL (R&D cat: 5860-AP-010/CF) (human, UniProt O75888 105-250, limits assumed); assay: cell-based or functional assay
T1 sequence (looked up): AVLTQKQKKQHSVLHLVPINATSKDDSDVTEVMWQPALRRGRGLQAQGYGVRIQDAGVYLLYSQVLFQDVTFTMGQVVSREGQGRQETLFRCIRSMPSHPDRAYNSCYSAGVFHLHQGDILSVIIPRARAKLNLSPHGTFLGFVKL

[2] = target: T2, APRIL (Acro Biosystems, Cat: APL-H52D1) (UniProt O75888 115-250, limits assumed); assay: ELISA, APRIL coated at 1 ug/mL, anti-human Fc-HRP, OD450
T2 construct: also called ARPIL
T2 sequence (looked up): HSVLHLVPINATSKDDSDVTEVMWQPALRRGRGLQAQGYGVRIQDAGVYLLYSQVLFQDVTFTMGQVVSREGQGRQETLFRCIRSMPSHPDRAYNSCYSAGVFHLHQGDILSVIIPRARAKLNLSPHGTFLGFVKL
Experimental: The capabilities of fusion proteins B606401, B637302, B746201, and B805201 to bind to BAFF and APRIL were assessed by ELISA as follows:
(§1) BAFF (PeproTech, Cat: 310-13) or ARPIL (Acro Biosystems, Cat: APL-H52D1) was diluted to 1 μg/mL with PBS, and a 96-well plate was coated with the dilution overnight at 4° C. The plate was washed with PBST and blocked with Blocking Buffer (PBST containing 1% BSA) at 37° C. for 1 h. The plate was tapped. The test antibodies were diluted with Blocking Buffer. Incubation was performed at 37° C. for 1.5 h. The plate was washed with PBST. An HRP-mouse anti-human Fc antibody (GenScript, Cat: A01854-200) was diluted with Blocking Buffer. Incubation was performed at 37° C. for 40 min. The plate was washed with PBST. 100 μL of TMB substrate solution (Biopanda, Cat: TMB-S-003) was added, and color development was performed at 37° C. for 3 min. 100 μL of ELISA stop solution (Solarbio, Cat: C1058) was added. OD450 was measured.

[3] = target: T1, recombinant human APRIL (R&D cat: …); assay: cell-based or functional assay; remark: listed apart in the source
[4] = target: T3, recombinant human BAFF (R&D cat: 7537-BF-025/CF) (human, UniProt Q9Y275 134-285); assay: cell-based or functional assay
[5] = target: T3, recombinant human BAFF (R&D cat: …); assay: cell-based or functional assay; remark: listed apart in the source
IFNAR1 [6] = target: T4, IFNAR1 (human, UniProt P17181 28-557); assay: cell-based or functional assay
T4 sequence (looked up): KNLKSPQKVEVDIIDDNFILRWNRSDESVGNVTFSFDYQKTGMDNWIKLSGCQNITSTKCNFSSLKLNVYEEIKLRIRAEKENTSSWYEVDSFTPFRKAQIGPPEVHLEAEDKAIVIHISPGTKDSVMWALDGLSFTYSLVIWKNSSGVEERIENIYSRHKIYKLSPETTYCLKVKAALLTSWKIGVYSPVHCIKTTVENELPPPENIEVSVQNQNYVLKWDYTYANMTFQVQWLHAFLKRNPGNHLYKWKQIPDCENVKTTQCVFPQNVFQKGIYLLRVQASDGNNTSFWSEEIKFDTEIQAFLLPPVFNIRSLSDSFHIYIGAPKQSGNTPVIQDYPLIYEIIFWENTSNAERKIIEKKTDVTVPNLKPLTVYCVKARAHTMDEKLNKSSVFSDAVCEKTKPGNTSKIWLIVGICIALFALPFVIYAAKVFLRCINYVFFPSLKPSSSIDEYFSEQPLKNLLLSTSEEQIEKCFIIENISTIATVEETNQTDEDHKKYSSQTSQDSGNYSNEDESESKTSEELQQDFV

IFNAR1 [7] = target: T4, IFNAR1; assay: cell-based or functional assay; remark: listed apart in the source
[8] = target: T2, APRIL (Acro Biosystems, Cat: APL-H52D1); assay: ELISA, APRIL coated at 1 ug/mL, anti-human Fc-HRP, OD450; remark: listed apart in the source
Experimental: as §1, with “The capabilities of B613301, B613302, and B613303, which are fusion proteins of anifrolumab and TACI-BCMA, to bind to BAFF and APRIL were assessed by ELISA as follows: [0548] BAFF (PeproTech,” for “BAFF (PeproTech,”, “96-well plate (Costar, Cat: 3590) was coated” for “96-well plate was coated”

T3 sequence (Q9Y275 134-285 limits assumed): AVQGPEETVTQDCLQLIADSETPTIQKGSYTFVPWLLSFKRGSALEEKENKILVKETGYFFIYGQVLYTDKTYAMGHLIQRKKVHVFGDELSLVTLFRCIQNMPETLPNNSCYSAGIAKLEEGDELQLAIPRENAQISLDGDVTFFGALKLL

Binder | Flow cytometry proliferating B cell proportion (%), mean value, APRIL-induced, drug at 4.12 nM (IgG1: 55.30) [1] | Flow cytometry proliferating B cell proportion (%), mean value, APRIL-induced, drug at 12.35 nM (IgG1: 54.80) [1] | Flow cytometry proliferating B cell proportion (%), mean value, APRIL-induced, drug at 37.04 nM (IgG1: 56.63) [1] | Flow cytometry proliferating B cell proportion (%), mean value, APRIL-induced, drug at 111.11 nM (IgG1: 55.83) [1] | Flow cytometry proliferating B cell proportion (%), mean value, APRIL-induced, drug at 333.33 nM (IgG1: 56.27) [1] | Flow cytometry proliferating B cell proportion (%), mean value, APRIL-induced, drug at 1000.00 nM (IgG1: 53.27) [1] | EC50 [2] | Emax [2] | CD27+ CD38+ plasma cell count, mean value, BAFF + APRIL-induced (both ligands together), drug at 10 nM (IgG1: 2687) [3] | CD27+ CD38+ plasma cell count, mean value, BAFF + APRIL-induced (both ligands together), drug at 100 nM (IgG1: 2496) [3] | CD27+ CD38+ plasma cell count, mean value, BAFF + APRIL-induced (both ligands together), drug at 1000 nM (IgG1: 2279) [3] | CD27+ CD38+ plasma cell count, mean value, BAFF + APRIL-induced (both ligands together), drug at 100 nM (IgG1: 2496) [4] | CD27+ CD38+ plasma cell count, mean value, BAFF + APRIL-induced (both ligands together), drug at 1000 nM (IgG1: 2279) [4] | Flow cytometry proliferating B cell proportion (%), mean value, BAFF-induced, drug at 10 nM (IgG1: 40.15) [5] | Flow cytometry proliferating B cell proportion (%), mean value, BAFF-induced, drug at 100 nM (IgG1: 40.60) [5] | Flow cytometry proliferating B cell proportion (%), mean value, BAFF-induced, drug at 1000 nM (IgG1: 33.97) [5] | IC50 (nM), inhibition of the activity of type I interferons (IFN-beta, HEK-Blue IFN-alpha/beta reporter cells) (IFNAR1 [6]) | IC50, inhibition of IFN-alpha-induced in vitro differentiation of B cells into plasma cells (CD27+ CD38+) (IFNAR1 [7]) | EC50 [8] | Emax [8]
B637302 (other, Fusion protein of anifrolumab, TACI-19-16 and BCMA-ECD-2 (C-terminus of the light chain)) heavy: EVQLVQSGAEVKKPGESLKISCKGSGYIFTNYWIAWVRQMPGKGLESMGIIYPGDSDIRYSPSFQGQVTISADKSITTAYLQWSSLKASDTAMYYCARHDIEGFDYWGRGTLVTVSSASTKGPSVFPLAPSSKSTSGGTAALGCLVKDYFPEPVTVSWNSGALTSGVHTFPAVLQSSGLYSLSSVVTVPSSSLGTQTYICNVNHKPSNTKVDKRVEPKSCDKTHTCPPCPAPEFEGGPSVFLFPPKPKDTLMISRTPEVTCVVVDVSHEDPEVKFNWYVDGVEVHNAKTKPREEQYNSTYRVVSVLTVLHQDWLNGKEYKCKVSNKALPASIEKTISKAKGQPREPQVYTLPPSRDELTKNQVSLTCLVKGFYPSDIAVEWESNGQPENNYKTTPPVLDSDGSFFLYSKLTVDKSRWQQGNVFSCSVMHEALHNHYTQKSLSLSPGK light: EIVLTQSPGTLSLSPGERATLSCRASQSVSSSFFAWYQQKPGQAPRLLIYGASSRATGIPDRLSGSGSGTDFTLTITRLEPEDFAVYYCQQYDSSAITFGQGTRLEIKRTVAAPSVFIFPPSDEQLKSGTASVVCLLNNFYPREAKVQWKVDNALQSGNSQESVTEQDSKDSTYSLSSTLTLSKADYEKHKVYACEVTHQGLSSPVTKSFNRGECGGGGSGGGGSMLQMAGQCSQNEYFDSLLHACIPCQLRCSSNTPPLTCQRYCSTSCREEQGEFYDHLLRDCISCASICGQHPKQCAAFCE | 50.6% | 50.7% | 53.6% | 51.5% | 48% | 33.6% | 0.0819 nM | 2.9 | 563 cells | 482 cells | 137 cells | 482 cells | 137 cells | 23.8% | 22.2% | 10.9% | 1.59 nM | 10.8 nM | – | –
Anifrolumab (antibody, human IgG1, kappa, V domains shown) VH: EVQLVQSGAEVKKPGESLKISCKGSGYIFTNYWIAWVRQMPGKGLESMGIIYPGDSDIRYSPSFQGQVTISADKSITTAYLQWSSLKASDTAMYYCARHDIEGFDYWGRGTLVTVSS VL: EIVLTQSPGTLSLSPGERATLSCRASQSVSSSFFAWYQQKPGQAPRLLIYGASSRATGIPDRLSGSGSGTDFTLTITRLEPEDFAVYYCQQYDSSAITFGQGTRLEIKR | – | – | – | – | – | – | – | – | – | – | – | – | – | – | – | – | 1.53 nM | 12.7 nM | – | –
B613303 (other, Fusion protein of anifrolumab and TACI-BCMA) heavy: EVQLVQSGAEVKKPGESLKISCKGSGYIFTNYWIAWVRQMPGKGLESMGIIYPGDSDIRYSPSFQGQVTISADKSITTAYLQWSSLKASDTAMYYCARHDIEGFDYWGRGTLVTVSSASTKGPSVFPLAPSSKSTSGGTAALGCLVKDYFPEPVTVSWNSGALTSGVHTFPAVLQSSGLYSLSSVVTVPSSSLGTQTYICNVNHKPSNTKVDKRVEPKSCDKTHTCPPCPAPEFEGGPSVFLFPPKPKDTLMISRTPEVTCVVVDVSHEDPEVKFNWYVDGVEVHNAKTKPREEQYNSTYRVVSVLTVLHQDWLNGKEYKCKVSNKALPASIEKTISKAKGQPREPQVYTLPPSRDELTKNQVSLTCLVKGFYPSDIAVEWESNGQPENNYKTTPPVLDSDGSFFLYSKLTVDKSRWQQGNVFSCSVMHEALHNHYTQKSLSLSPGK light: EIVLTQSPGTLSLSPGERATLSCRASQSVSSSFFAWYQQKPGQAPRLLIYGASSRATGIPDRLSGSGSGTDFTLTITRLEPEDFAVYYCQQYDSSAITFGQGTRLEIKRTVAAPSVFIFPPSDEQLKSGTASVVCLLNNFYPREAKVQWKVDNALQSGNSQESVTEQDSKDSTYSLSSTLTLSKADYEKHKVYACEVTHQGLSSPVTKSFNRGECGGGGSGGGGSSRVDQEERFPQGLWTGVAMRSCPEEQYWDPLLGTCMSCKTICNHQSQRTCAAFCRSLSCRKEQGKFYDHLLRDCISCASICGQHPKQCAYFCENKLRSPVNLPPELMLQMAGQCSQNEYFDSLLHACIPCQLRCSSNTPPLTCQRYCNASVTNSVKGTNA | – | – | – | – | – | – | – | – | – | – | – | – | – | – | – | – | – | – | 0.151 nM | 2.33
